Molecular target: PDGF-AB (Homo sapiens) (UniProt P04085+P01127)
Assay: filter

Sequence of PDGF-AB (Homo sapiens) (P01127 82-190, chain 2 of 2, other chains not shown): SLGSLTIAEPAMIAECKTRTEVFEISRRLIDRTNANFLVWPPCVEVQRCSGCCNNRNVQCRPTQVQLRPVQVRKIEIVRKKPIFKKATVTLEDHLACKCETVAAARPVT

Sequence	binding signal (fold weaker than round 12 pool) (initial random library)	Kd (round 12 enriched pool, data not shown)
ATCCGCCTGATTAGCGATACTNNNNNNNNNNNNNNNNNNNNNNNNNNNNNNNNNNNNNNNNACTTGAGCAAAATCACCTGCAGGGG [random ssDNA library]	700	–
ATCCGCCTGATTAGCGATACTNNNNNNNNNNNNNNNNNNNNNNNNNNNNNNNNNNNNNNNNACTTGAGCAAAATCACCTGCAGGGG [ssDNA SELEX round 12 pool]	–	50 pM
